Test results reported in patent US5328898A, “Factor XIIIA fibrin binding fragments” (Duke University, priority 1990, dated 1994).
Values belong to the substance of their own block, whether it stands above or below them. Ends that are not written are not given here.

Columns and labels:
fibrin [1] = target: T1, fibrin (Homo sapiens, UniProt P02671+P02675+P02679); assay: Inhibition of 125I-DDAVY. . . peptide binding to fibrin (competition)
T1 construct: the mixture was clotted by the addition of 10 U/mL of thrombin; After 10 minutes at 37° C., the fibrin was compressed
T1 sequence (P02671 36-629 isoform P02671-2 limits assumed): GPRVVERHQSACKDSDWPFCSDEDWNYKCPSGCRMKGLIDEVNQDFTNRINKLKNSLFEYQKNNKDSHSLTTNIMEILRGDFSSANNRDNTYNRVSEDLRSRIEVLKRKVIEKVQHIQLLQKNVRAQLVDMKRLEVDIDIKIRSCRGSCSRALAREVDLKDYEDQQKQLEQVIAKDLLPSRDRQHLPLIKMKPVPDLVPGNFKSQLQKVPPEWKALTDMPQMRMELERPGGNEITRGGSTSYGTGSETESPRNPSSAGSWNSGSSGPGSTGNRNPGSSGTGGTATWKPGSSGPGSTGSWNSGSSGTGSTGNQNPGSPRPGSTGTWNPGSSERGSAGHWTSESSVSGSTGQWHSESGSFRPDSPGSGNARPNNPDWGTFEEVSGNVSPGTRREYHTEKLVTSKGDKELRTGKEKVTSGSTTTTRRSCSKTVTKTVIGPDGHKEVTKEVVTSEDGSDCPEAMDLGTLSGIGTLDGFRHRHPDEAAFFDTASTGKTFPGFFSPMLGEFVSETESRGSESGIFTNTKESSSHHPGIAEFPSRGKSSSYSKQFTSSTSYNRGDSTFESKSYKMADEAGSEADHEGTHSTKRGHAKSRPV
T1 sequence (P02675 45-491 limits assumed): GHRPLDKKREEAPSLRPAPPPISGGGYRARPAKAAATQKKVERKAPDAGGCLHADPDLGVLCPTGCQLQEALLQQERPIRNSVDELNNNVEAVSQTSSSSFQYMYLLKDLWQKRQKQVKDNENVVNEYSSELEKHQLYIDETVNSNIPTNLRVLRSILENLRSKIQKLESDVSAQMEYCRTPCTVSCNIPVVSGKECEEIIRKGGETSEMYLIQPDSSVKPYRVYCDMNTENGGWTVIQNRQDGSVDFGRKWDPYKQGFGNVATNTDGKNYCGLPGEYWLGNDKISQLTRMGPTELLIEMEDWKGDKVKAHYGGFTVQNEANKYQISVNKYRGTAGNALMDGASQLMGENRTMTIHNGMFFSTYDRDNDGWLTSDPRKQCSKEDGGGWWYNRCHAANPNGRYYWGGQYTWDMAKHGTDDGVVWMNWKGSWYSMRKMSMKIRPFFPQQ
T1 sequence (P02679 27-437 isoform P02679-2 limits assumed): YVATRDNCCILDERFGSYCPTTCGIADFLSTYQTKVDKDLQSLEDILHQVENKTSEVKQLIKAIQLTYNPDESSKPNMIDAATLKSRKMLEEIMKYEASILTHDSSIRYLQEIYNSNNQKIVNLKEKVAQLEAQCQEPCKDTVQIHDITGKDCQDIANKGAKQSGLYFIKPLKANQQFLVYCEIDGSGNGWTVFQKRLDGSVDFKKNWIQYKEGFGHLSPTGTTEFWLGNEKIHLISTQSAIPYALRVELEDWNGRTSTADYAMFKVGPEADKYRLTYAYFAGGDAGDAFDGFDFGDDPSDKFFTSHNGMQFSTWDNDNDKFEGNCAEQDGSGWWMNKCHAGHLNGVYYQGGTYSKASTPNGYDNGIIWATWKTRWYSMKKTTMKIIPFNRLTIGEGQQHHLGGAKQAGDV
Experimental: (§1) Binding of radiolabeled DDAVY. . . peptide prepared in accordance with Example 3 above was conducted in the presence of the following proteins: human albumin (Kabi), bovine serum albumin (BSA), hemoglobin, and cytochrome C. Fibrin binding was performed by incubating 0.5 mg/mL fibrinogen, 0.1% Triton X-100, 0.15M NaCl, 0.1M Tris, pH 7.4 (TBS), 10 mM CaCl2, and ^125 I-labeled DDAVY. . . peptide and the mixture was clotted by the addition of 10 U/mL of thrombin. After 10 minutes at 37° C., the fibrin was compressed by centrifugation (10-12,000 rpm for 10 minutes), washed thrice with TBS and the bound radioactivity was quantitated using a gamma Counter. Proteins were included in the binding mixture at these concentrations: hemoglobin (100 micromolar); human albumin (Kabi) (100 micromolar); and cytochrome C (500 micromolar). Fibrin concentration was approximately 1.0 micromolar.
Purified recombinant platelet Factor XIII A-chains were used to inhibit the binding of DDAVY. . . peptide to fibrin. At a concentration of 0.4 mg/mL fibrinogen, 2.0 mg/mL of recombinant platelet Factor XIII inhibited the binding of DDAVY. . . peptide to fibrin by 76%. In another experiment, purified placental Factor XIII A-chains were used to inhibit DDAVY. . . peptide binding to fibrin. Binding was conducted in the presence of 1.0 mg/mL fibrinogen, 5 nanomoles of placental Factor XIII and approximately 0.05 nanomoles of the DDAVY. . . peptide. Under these conditions, the binding of the peptide to fibrin was inhibited by nearly 44%.
Binding of radiolabeled DDAVY. . . peptide (approximately 52 pmoles) was mixed with unlabeled DDAVY. . . peptide (approximately 34 nanomoles;=660-fold molar excess over radiolabeled peptide) and the mixture was bound to 0.1 mg/mL fibrin. Under these conditions, the binding of radiolabeled peptide was inhibited by nearly 83%. […] In these experiments and in the experiments conducted in the presence of XIII, binding values were corrected for nonspecific binding observed in the absence of thrombin and/or in the presence of XIII or unlabeled DDAVY. . . peptide alone.

fibrin [2] = target: T1, fibrin; assay: Fibrin binding of radiolabeled peptides; conditions: unbound material analyzed by reverse phase HPLC
Experimental: By reverse phase HPLC, peptides containing portions of the N- and C-terminal amino acid sequences of the DDAVY. . . peptide were separated from the full length DDAVY. . . peptide.
as §1

Factor XIIIa = assay: Factor XIIIa-catalyzed crosslinking of fibrin II (SDS-PAGE); assay type: biochemical; conditions: human fibrinogen 0.27 mg/mL
Experimental: This example illustrates the effect of DDAVY. . . peptide and NKLIV. . . peptide on fibrin crosslinking by Factor XIIIa. Purified human fibrinogen (0.27 mg/mL) was mixed with increasing concentrations (56 micromolar to 280 micromolar) of the DDAVY. . . peptide and incubated for 15 minutes at 37° C. Then, calcium chloride was added in 0.1M Tris, pH7.4 containing 0.15M NaCl (Tris-buffered saline, TBS) to make the final calcium concentration equal 10 mM. The mixture was then clotted by the addition of 10 U/mL thrombin. Thrombin also served to activate the catalytic amounts of Factor XIII present in the fibrinogen preparation. The mixture was incubated for an additional 15 minutes at 37° C. and then solubilized in SDS-PAGE buffer containing 5% sodium dodecylsulfate (SDS), 4M urea, 10mM Tris, pH7.4, 1.0 mM ethylenediaminetetraacetic acid (EDTA), 1% 2-mercaptoethanol, and 0.001% bromophenol blue. The mixture was boiled for 5 minutes, cooled, and then separated by electrophoresis on a 4-15% linear gradient polyacrylamide gel (SDS-polyacrylamide gel electrophoresis, SDS-PAGE). After electrophoresis, the gel was stained using Coomassie Brilliant Blue and destained. Control incubations were conducted simultaneously that contained no peptide.
The reaction was also conducted as described for the DDAVY. . . peptide, except that NKLIV. . . peptide was substituted for the DDAVY. . . peptide. […]

inhibition of the binding of DDAVY. . . peptide to fibrin (fibrin [1]; 1.0 mg/mL fibrinogen, 5 nanomoles placental Factor XIII, approximately 0.05 nanomoles DDAVY. . . peptide): ~44%
Substance: placental Factor XIII A-chains: purified placental Factor XIII A-chains

binding to fibrin (fibrin [2]): did not bind to fibrin
Substance: GEVNDIKTRSWSYGQF [C-terminal portion of the DDAVY. . . peptide separated by HPLC]

inhibition of the binding of DDAVY. . . peptide to fibrin (fibrin [1]; 0.4 mg/mL fibrinogen, 2.0 mg/mL recombinant platelet Factor XIII): 76%
Substance: recombinant platelet Factor XIII: Purified recombinant platelet Factor XIII A-chains

binding to fibrin (fibrin [2]): bound to fibrin
inhibition of binding of radiolabeled DDAVY. . . peptide to fibrin (fibrin [1]; 1.0 mg/mL unlabeled peptide, 2.0 micrograms/mL radiolabeled peptide, 0.2 mg/mL fibrin): inhibited completely
inhibition of binding of radiolabeled DDAVY. . . peptide to fibrin (fibrin [1]; approximately 34 nanomoles unlabeled peptide (660-fold molar excess over approximately 52 pmoles radiolabeled), 0.1 mg/mL fibrin): ~83%
Substance: DDAVYLDNEKEREEYVLNDIGVIFYGEVNDIKTRSWSYGQF-amide (DDAVYLDNEKEREEYVLNDIGVIFYGEVNDIKTRSWSYGQF-NH2) [DDAVY. . . peptide]
inhibition of fibrin crosslinking (Factor XIIIa; 280 micromolar peptide): ~50%
concentration at which inhibition of fibrin crosslinking could be detected (Factor XIIIa; 10 U/mL thrombin, 10 mM calcium): around 112 micromolar

binding to fibrin (fibrin [2]): did not bind to fibrin
Substance: KTRSWSYGQF [C-terminal portion of the DDAVY. . . peptide separated by HPLC]
